Laboratory results as given in patent US20090233868A1, “Small antiviral peptides against hepatitis C virus” (priority 2005, published 2009).

Tests used:
nonspecific RNA = experiment: Filter binding assay with nonspecific RNA probe; conditions: control probe, same filter-binding assay
[1] = system: HCV IRES mediated translation; experiment: In vitro translation of uncapped HCV-IRES-Luc monocistronic RNA in rabbit reticulocyte lysate; assay type: biochemical, hepatitis C virus; conditions: 25 ng and 50 ng protein; data not shown

B1: wt-La: purified recombinant full-length wildtype human La protein (p52) (protein, UniProt P05455 1-408, looked up)
chain: MAENGDNEKMAALEAKICHQIEYYFGDFNLPRDKFLKEQIKLDEGWVPLEIMIKFNRLNRLTTDFNVIVEALSKSKAELMEISEDKTKIRRSPSKPLPEVTDEYKNDVKNRSVYIKGFPTDATLDDIKEWLEDKGQVLNIQMRRTLHKAFKGSIFVVFDSIESAKKFVETPGQKYKETDLLILFKDDYFAKKNEERKQNKVEAKLRAKQEQEAKQKLEEDAEMKSLEEKIGCLLKFSGDLDDQTCREDLHILFSNHGEIKWIDFVRGAKEGIILFKEKAKEALGKAKDANNGNLQLRNKEVTWEVLEGEVEKEALKKIIEDQQESLNKWKSKGRRFKGKGKGNKAAQPGSGKGKVQFQGKKTKFASDDEHDEHDENGATGPVKRAREETDKEEPASKQQKTENGAGDQ
modifications: full-length
For B1, the “Binding of non-specific RNA probe (filter binding)” value (nonspecific RNA) was “did not show considerable binding” and the “Stimulation of HCV IRES mediated translation in absence of peptide” value [1] was “dose dependent stimulation”.
